Measured values as given in US20250109190A1 (BYOMASS, published 2025).

How the values were obtained:
Assay in all cases: BLI Octet; IgG, avid
[1] = molecular target: human GDF8 (human, UniProt O14793 267-375)
[2] = molecular target: T1, human GDNF (human, UniProt P39905 78-211, limits assumed)
T1 sequence (looked up): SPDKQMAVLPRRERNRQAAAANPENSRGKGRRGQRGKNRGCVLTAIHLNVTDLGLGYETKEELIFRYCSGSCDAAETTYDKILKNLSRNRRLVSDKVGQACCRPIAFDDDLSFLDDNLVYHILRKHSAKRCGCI

[3] = molecular target: T2, Activin B (UniProt P09529 293-407)
T2 sequence (looked up): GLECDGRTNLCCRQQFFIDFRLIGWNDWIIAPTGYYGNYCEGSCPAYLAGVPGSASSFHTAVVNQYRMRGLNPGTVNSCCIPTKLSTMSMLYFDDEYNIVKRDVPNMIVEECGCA

[4] = molecular target: T3, human GDF10 (human, UniProt P55107 369-478)
T3 sequence (looked up): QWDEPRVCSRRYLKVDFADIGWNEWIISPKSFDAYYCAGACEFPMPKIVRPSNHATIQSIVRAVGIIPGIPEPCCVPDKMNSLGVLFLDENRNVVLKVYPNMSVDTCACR

[5] = molecular target: T4, BMP10 (UniProt O95393 317-424)
T4 sequence (looked up): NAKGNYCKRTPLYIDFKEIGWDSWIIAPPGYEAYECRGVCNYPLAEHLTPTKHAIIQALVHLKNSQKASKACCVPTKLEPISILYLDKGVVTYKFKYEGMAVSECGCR

[6] = molecular target: T5, GDF15 Fc (UniProt Q99988 197-308, limits assumed)
T5 construct: species not given; not shown: Fc part of the fusion
T5 sequence (looked up): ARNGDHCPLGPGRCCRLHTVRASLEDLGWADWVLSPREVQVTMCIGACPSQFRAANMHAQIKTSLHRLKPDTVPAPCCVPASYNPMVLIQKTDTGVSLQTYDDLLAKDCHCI

[7] = molecular target: T6, BMP9 (UniProt Q9UK05 320-429)
T6 sequence (looked up): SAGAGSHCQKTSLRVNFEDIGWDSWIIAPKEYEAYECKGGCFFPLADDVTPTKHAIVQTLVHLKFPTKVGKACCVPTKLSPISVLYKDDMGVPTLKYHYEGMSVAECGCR

[8] = molecular target: human GDF11 (human, UniProt O95390 299-407)
human GDF11, sequence (O95390 299-407 limits assumed): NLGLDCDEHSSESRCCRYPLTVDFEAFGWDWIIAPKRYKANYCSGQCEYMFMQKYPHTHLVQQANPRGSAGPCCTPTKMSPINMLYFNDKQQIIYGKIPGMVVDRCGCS

Measured: binding result

B1: Antibody K (Clone K), IgG (antibody, V domains shown)
VH: QVQLVQSGAEVKKPGSSVKVSCKASGGTSSSYAISWVRQAPGQGLEWMGYIIPAFGTANYAQKFQGRVTITADESTSTAYMELSSLRSEDTAVYYCARPVRTYPLGKYFYHWGQGTLVTVSS
VL: EIVLTQSPATLSLSPGERATLSCRASQSVSSYLAWYQQKPGQAPRLLIYDASNRATGIPARFSGSGSGTDFTLTISSLEPEDFAVYYCQQDSIFPPYTFGGGTKVEIKR
notes: IgG
no binding (tested: 100 nM): [1] | [2] | [3] | [4] | [5] | [6] | [7] | [8]

B2: Antibody I (Clone I), IgG (antibody, V domains shown)
VH: QVQLVQSGAEVKKPGSSVKVSCKASGGTFSNYAISWVRQAPGQGLEWMGYIIPFFGTANYAQKFQGRVTITADESTSTAYMELSSLRSEDTAVYYCARGGSGYSTSWGSSLYWGQGTLVTVSS
VL: EIVLTQSPGTLSLSPGERATLSCRASQSVSSSYLAWYQQKPGQAPRLLIYGASYRATGIPDRFSGSGSGTDFTLTISRLEPEDFAVYYCLQSGVFPYTFGGGTKVEIKR
notes: IgG
no binding (tested: 100 nM): [1] | [2] | [3] | [4] | [5] | [6] | [7] | [8]

B3: Antibody Q (Clone Q), IgG (antibody, V domains shown)
VH: QVQLVQSGAEVKKPGSSVKVSCKASGGSFSPYTWSWVRQAPGQGLEWMGGIIPISGTANTAQKFQGRVTITADESTSTAYMELSSLRSEDTAVYYCARGGPLSGWRASYYYWGQGTLVTVSS
VL: not shown
notes: IgG
no binding (tested: 100 nM): [1] | [2] | [3] | [4] | [5] | [6] | [7] | [8]

B4: Antibody R (Clone R), IgG (antibody, V domains shown)
VH: QVQLVQSGAEVKKPGSSVKVSCKASGGSFSPYTISWVRQAPGQGLEWMGGIILTSGTANYAQKFQGRVTITADESTSTAYMELSSLRSEDTAVYYCARGGPLSGWRASYYYWGQGTLVTVSS
VL: not shown
notes: IgG
no binding (tested: 100 nM): [1] | [2] | [3] | [4] | [5] | [6] | [7] | [8]
